Reference: patent US6586252B2, “Nucleic acid molecule encoding the catalytic subunit of a protein phosphatase 2A that regulates flowering time in plants” (Korea Kumho Petrochemical Co., Ltd., priority 2001, dated 2003)

Test system: phosphorylated oat phytochrome A
Assay: Dephosphorylation of autophosphorylated oat phytochrome A by recombinant PP2AC-JD (SDS-PAGE, autoradiography)
Type: biochemical
Procedure: The oat phytochrome A was first autophosphorylated in the presence of γ[32P]ATP under the light conditions indicated. The recombinant PP2AC-JD protein was expressed via the pGEX-4T-1 expression vector in E. coli strain BL21 as a GST fusion, and the GST tag domain was cleaved out by thrombin digestion. (A) Cation requirements for the PP2AC-JD activity. One μg of the phosphorylated phytoclirome A was incubated with 0.2 μg of the recombinant PP2AC-JD for 30 minutes at room temperature, analysed on 12% SDS-PAGE, and subject to autoradiography. (B) Spectral form-dependent dephosphorylation of the phytochrome A. The Pfr form was a better substrate for the PP2AC-JD than the Pr form.
The enzymatic activity of the protein phosphatase encoded by said nucleic acid molecule can be assayed using a phosphorylated protein, preferentially autophosphorylated phytochromes. The reaction mixture is then analyzed on SDS-PAGE and visualized by autoradiography.
The PCR product containing the PP2AC-JD gene was double-digested with EcoRI and XhoI and incorporated into the pGEX-4T-1 E. coli expression vector, resulting in pG-PP2AC-JD. In this expression construct, the PP2AC-JD gene sequence was in frame fused to the glutathione S-transferase (GST) coding sequence at the N-terminus. The vector construct was transformed into E. coli strain BL21, and the transformants were selected with 100 μg/ml ampicillin. RB medium, rather than LB, was used for induction. Two hundred fifty ml of RB (0.5% yeast extract, 1% tryptone, 0.5% NaCl, 0.2% glucose, pH 7.5 with NaOH) supplemented with ampicillin (100 μg/ml) was inoculated with 3 ml of freshly grown cell culture and incubated at 20° C. with shaking at 250 rpm to an OD600 of 0.6. Expression was induced by adding IPTG (1 μM) and by further shaking at 20° C. for 5 hours. After centrifugation at 5000×g for 5 minutes, the cell pellet was washed in ice-cold 1×Phosphate-Buffered Saline (PBS, 140 mM NaCl, 2.7 mM KCI, 10 mM Na2HPO4, 1.8 mM KH2PO4, pH7.3). […]

B1: PP2AC-JD: recombinant catalytic subunit of a pea protein phosphatase 2A (SEQ ID NO: 2), expressed in E. coli BL21 (protein)
chain: MDLDQWISKVKDGQHLLEDELQLLCEYVKEILIEESNVQPVNSPVTVCGDIHGQFHDLMKLFQTGGHVPETNYIFMGDFVDRGYNSLDVFTILLLLKARYPANITLLRGNHESRQLTQVYGFYDECQRKYGNANATRYCTDVFDYLTLSAIIDGTVLCVHGGLSPDIRTIDQIRVIERNCEIPHEGPFCDLMWSDPEDIETWAVSPRGAGWLFGSRVTSEFNHINNLDLVCRAHQLVQEGLKYMFQDKGLVTVWSAPNYCYRCGNVASILSFNENMEREVKFFTETEENNQMRGPRTGVPYFL
- stimulatory effect of other cations on PP2AC-JD activity (cations other than Fe2+ or Zn2+): did not show any significant stimulatory effects
- dephosphorylation of phosphorylated oat phytochrome A (in the presence of Fe2+ or Zn2+, 1 μg phytochrome A, 0.2 μg PP2AC-JD, 30 minutes, room temperature): efficiently dephosphorylated
- dephosphorylation of Pfr phytochrome A compared with the Pr spectral form (phytochrome A autophosphorylated under different light conditions): more efficiently dephosphorylated
